In patent publication US20160243226A1:
Blank lines part the entries; values can stand above or below the substance they belong to.

Assays:
CD20 (human) = CD20 (human) (UniProt P11836); assay: cell-based or functional assay
CD74 (human) = CD74 (human) (UniProt P04233); assay: cell-based or functional assay
Sequence of CD74 (human) (P04233 whole entry): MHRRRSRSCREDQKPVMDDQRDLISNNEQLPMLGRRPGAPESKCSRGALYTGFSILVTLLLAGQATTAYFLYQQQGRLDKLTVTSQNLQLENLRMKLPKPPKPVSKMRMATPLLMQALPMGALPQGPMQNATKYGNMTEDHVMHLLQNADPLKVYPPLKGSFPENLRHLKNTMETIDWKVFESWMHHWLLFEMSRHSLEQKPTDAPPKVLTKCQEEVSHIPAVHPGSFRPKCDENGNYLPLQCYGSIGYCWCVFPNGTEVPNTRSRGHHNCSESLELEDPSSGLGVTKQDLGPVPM

Sequence of CD20 (human) (P11836 whole entry): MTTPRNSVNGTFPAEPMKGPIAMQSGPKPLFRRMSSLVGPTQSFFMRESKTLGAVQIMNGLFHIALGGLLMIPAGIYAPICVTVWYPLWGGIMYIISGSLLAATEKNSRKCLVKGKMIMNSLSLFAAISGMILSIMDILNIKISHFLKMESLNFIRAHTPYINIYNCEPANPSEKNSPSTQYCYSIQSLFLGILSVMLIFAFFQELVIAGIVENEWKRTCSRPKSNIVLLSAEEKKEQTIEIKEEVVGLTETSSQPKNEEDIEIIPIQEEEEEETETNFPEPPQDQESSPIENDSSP

Substance: 20-Rap
EC50, in vitro cytotoxicity, Daudi and Ramos (CD20 (human)): 0.1 nM | EC50, in vitro cytotoxicity, Jeko-1 (CD20 (human)): 0.02 nM

EC50 (nM), MTS assay, JeKo-1 (CD74 (human)): > 100 nM
Substance: 74-(74)-(74) (antibody)

EC50 (nM), MTS assay, Daudi (CD20 (human)): 5.8 nM | EC50 (nM), MTS assay, Granta-519 (CD20 (human)): 0.2 nM | EC50 (nM), MTS assay, Mino (CD20 (human)): 3.4 nM | EC50 (nM), MTS assay, Raji (CD20 (human)): 8 nM
Substance: Hex-hA20 (antibody)
